# Test results reported in patent US20140065154A1, “TLR3 BINDING AGENTS” (INNATE PHARMA, priority 2011, published 2014).
# Like-named read-outs stand apart in the source and are kept apart here.
# How the values were obtained:
# [1] = cited from earlier work
# COPD mouse model = experiment: In vivo efficacy model of COPD (Elastin and LPS); parameters: species or system mice; conditions: drug combination study
# Procedure: Three groups of 10 male mice were treated as follows: • 1 group of 10 mice with a vehicle. • 1 group of 10 mice with the anti-mouse TLR328G7 antibody administration (i.p., 500 μg/per mouse) on days 0, 3, 7, 10, 14, 17, 21 and 24. • 1 group of 10 mice with the positive control roflumilast (approved as […]; antagonist of PDE-4) (oral, 15 mg/kg, five times per week). All mice were treated at days 0, 7, 14 and 21 with Elastin and LPS (i.n.), to induce COPD. At day 28 mice were sacrificed for analysis. The cellular infiltrates into airways was measured by analysis of bronchoalveolar lavage (BAL) fluid by differential cell count on day 28. The oxygenation of venous blood was measured by gasometry on day 28. The level inflammatory mediators in BALF, through the analysis for protein levels of TNF-alpha, IL-6, IL-17A and IP-10 was performed by multiplex assay. […] Statistical analysis was performed on all data utilizing a Student's t test: '*' p<0.05; '**' p<0.005; '***'p<0.0005. […] All mice were treated with Elastin and LPS (i.n.), to induce COPD and sacrified as in study A. The cellular infiltrates into airways was measured by analysis of bronchoalveolar lavage (BAL) fluid by differential cell count as in Study A.
# [2] = target: T1, wild type human TLR3 expressed in 293T cells (human, UniProt O15455 24-904); experiment: cell-based or functional assay
# [3] = target: T1, wild type human TLR3 expressed in 293T …; experiment: cell-based or functional assay; remark: listed apart in the source
# [4] = target: T2, recombinant human TLR3 extracellular domain (R&D Systems) (human, UniProt O15455 27-711); experiment: SPR (Biacore T100), rhTLR3 immobilised on CM5 chip, bivalent affinity, pH 5.6
# T2 construct: also called rhTLR3; human rec TLR3; not shown: His tag (R&D #1487-TR)
# [5] = target: T2, recombinant human TLR3 extracellular …; experiment: SPR (Biacore T100), rhTLR3 immobilised on CM5 chip, bivalent affinity, pH 7.2
# TLR3 [6] = target: T3, TLR3 (Homo sapiens, UniProt O15455); experiment: SPR competition assay with polyAU in acidic buffer; type: binding; parameters: purchased R&D Systems; conditions: pH 5.6
# Procedure: (a) General Biacore T100 methods. SPR measurements were performed on a Biacore T100 apparatus (Biacore GE Healthcare) at 25° C. In all Biacore experiments HBS-EP+ buffer (Biacore GE Healthcare) or 10 mM sodium acetate pH 5.6, 150 mM NaCl, 0.05% P20 served as running buffer and sensorgrams were analyzed with Biaevaluation 4.1 and Biacore T100 Evaluation software. Recombinant human and mouse TLR3 were purchased from R&D Systems. (b) Protein immobilization. Recombinant TLR3 protein was immobilized covalently to carboxyl groups in the dextran layer of a Biacore Series 5 Sensor Chip CM5 (chip). The chip surface was activated with EDC/NHS (0.2M N-ethyl-N′-(3-dimethylaminopropyl) carbodiimidehydrochloride, 0.05M N-hydroxysuccinimide (Biacore GE Healthcare)). […] Deactivation of the remaining activated groups was performed using 100 mM ethanolamine pH 8 (Biacore GE Healthcare). (c) Antibody binding analysis was run using HBS-EP+ (neutral pH). Antibodies at a concentration of 10 μg/ml were injected for 2 min at a constant flow rate of 10 μl/min over the immobilized proteins and allowed to dissociate for 3 min before regeneration by a ten second injection of 10 mM NaOH, 500 mM NaCl regeneration buffer. Blank correction was performed on line by co-injecting the soluble antibodies onto the reference dextran flow cell. (d) Competition assay in acidic buffer (pH 5.6). Flow rate was set to 10 μl/min, the first antibody at a concentration of 50 μg/ml (or polyAU at 100 μg/ml) was injected for 2 min, 3 times successively in order to saturate the rhTLR3 surface. The second antibody (or polyAU at 100 μg/ml when the polyAU was added after first antibody) was then injected for 2 min also at 50 μg/ml and allowed to dissociate for 3 min before regeneration by a 15 second injection of 10 mM NaOH, 500 mM NaCl regeneration buffer. Blank correction was also performed on line and the curve using the saturating antibody (or neucleic acid) followed by an injection of buffer subtracted to remove the signal due to the dissociation of the first complex. The resulting signal was compared to that obtained by the injection of the second antibody directly onto the rhTLR3 surface.
# Competition assays were conducted according to the methods described for SPR, item d) at pH 5.6.
# Buffer (followed by polyAU) is represented in the lower line, while 31C3 followed by polyAU is in the upper line.
# TLR3 [7] = target: T3, TLR3; experiment: 293T-TLR3-ISRE luciferase reporter gene assay; type: cell-based; parameters: host or cells: 293T (ATCC #CRL-1573), stably carrying pISRE-luc; conditions: dsRNA TLR3 agonist
# Excerpt: A reporter gene assay using as promoter ISRE (IFN-stimulated response element) and as reporter gene and protein luciferase was set up. A 293T cell line (ATCC, #CRL-1573) was stably transfected with pISRE-luc plasmid (#219089—Stratagene), further selected by cloning as inducing optimal response to IFN-alpha stimulation and referred to as control 293T-ISRE. This cell line was further stably transfected with pUNO-humanTLR3 plasmid (#puno-htlr3—InVivogen) or pUNO-mouseTLR3 plasmid (#puno-mtlr3—InVivogen) and referred to as 293T-TLR3-ISRE and 293T-mTLR3-ISRE respectively. On day 0, cells are seeded at 4×10^5 cells/mL in complete culture medium in 96-well culture plate (100 μl/well). Cells are first incubated at 37° C. for 20 hours, then 50 μL of medium are discarded and cells are activated with 100 μL/well final of increasing amounts of polyAU together with various concentrations of anti-TLR3 antibodies. Cells incubated with fresh medium will be used as background luciferase activity. Cells are incubated at 37° C. for 6 hours. 100 μL of freshly thawed Steady Glo (Promega) are added to each well, plates were incubated 10 min at RT in the dark and the light emitted in each well is quantified as Count Per Second (CPS) on a gamma-counter (TopCount) apparatus.
# Antibodies were tested for inhibition of TLR3 signaling in a luciferase based reporter gene activity (293T-TLR3-ISRE). […] Briefly, dsRNA TLR3 agonists were used to induce TLR3 signaling in the reporter assay in the presence of anti-TLR3 antibodies, and TLR3 signaling was assessed.
# In a further set of experiments, 293-huTLR3 cells were incubated with different concentrations of the anti-TLR3 mAbs for 1 to 2 hours (see FIG. 1A; mAb concentration is represented in axis in μg/ml on a logarithmic scale) followed by the addition to the medium of the TLR3 agonist polyAU at a concentration of 300 μg/ml. Luciferase expression was measured after 6 h. […]
# Similarly the kinetics of inhibition of the antibodies was evaluated in 293T-TLR3 luciferase assay. […] Luciferase expression was measured at 6 h post poly(A:U) addition. […]
molecule,measurement,setting,value
Etanercept,half-life,[1]; after a 25 mg dose,70 h
Adalimumab,half-life,[1]; after a standard 40 mg dose,approximately 2 weeks
same,half-life (range),[1]; after a standard 40 mg dose,240 to 480 h
"O=C(Nc1c(Cl)cncc1Cl)c1ccc(OC(F)F)c(OCC2CC2)c1 [Roflumilast, roflumilast]",BAL macrophages and lymphocytes,COPD mouse model,decreases in macrophages
same,BAL neutrophil infiltration,COPD mouse model,decreased infiltration of neutrophils into the airways
"antibody 23C8 (antibody, V domains shown, also called 23C8.4) VH: EVQLQQSGPELVKPGASVKISCKASGYSFTGYFMHWVKQSHVKSLEWIGRINPYNGATSYNQNFKDKASLTVDKSSSTSYMELHSLTSEDSAVYYCVRDDGGNYPFDYWGQGTTLTVS VL: DIQMTQSPASLSASVGETVTITCRASENIYSYLAWYQQKQGKSPQLLVYYAKTLAEGVPSRFSGSGTGTQFSLKINSLQPEDFGSYYCQHHYGTPYTFGGGTKLEIK","IC50, luciferase reporter inhibition test with 100 µg/ml of polyAU",[2],< 5 µg/mL
same,"IC50 (µg/ml), inhibition of polyAU (300 µg/ml)-induced luciferase expression in 293-huTLR3 ISRE reporter cells",[3],1.83 µg/mL
same,Kd,[4],0.0103 nM
same,Kd,[5],0.138 nM
"antibody 28F11 (antibody, V domains shown) VH: EVQLQQSGPELVKPGASVKISCKASGYSFTGYYIHWVKQSHVKSLEWIGRINPYYGATSYNQNFKDKANLTVDKSSSTAYMELHSLTSDDSAVYYCARSTKLGYLDYWGQGTTLTVS VL: DIQMTQSPASLSASVGETVTITCRASENIYSNLAWYQQKQGKSPQLLIYNAKTLAEGVPSRFSGSGSGTQYFLKINSLQPEDFGSYYCQHHYGTPFTFGGGTKLEIK","IC50 (µg/ml), inhibition of polyAU (300 µg/ml)-induced luciferase expression in 293-huTLR3 ISRE reporter cells",[3],5.56 µg/mL
same,Kd,[4],0.335 nM
same,Kd,[5],0.65 nM
"23C8: anti-human TLR3 monoclonal antibody, IgG1; VH SEQ ID NO: 26, VL SEQ ID NO: 27 (antibody, listed as Mus musculus, V domains shown, SIGNAL (1)..(19); SIGNAL (1)..(20)) VH: MGWSWIFLFLLSGTAGVLSEVQLQQSGPELVKPGASVKISCKASGYSFTGYFMHWVKQSHVKSLEWIGRINPYNGATSYNQNFKDKASLTVDKSSSTSYMELHSLTSEDSAVYYCVRDDGGNYPFDYWGQGTTLTVS VL: MSVPTQVLGLLLLWLTGARCDIQMTQSPASLSASVGETVTITCRASENIYSYLAWYQQKQGKSPQLLVYYAKTLAEGVPSRFSGSGTGTQFSLKINSLQPEDFGSYYCQHHYGTPYTFGGGTKLEIK",antibody binding to TLR3 chip previously incubated with polyAU,TLR3 [6],able to bind TLR3 even in the presence of polyAU
same,inhibition of TLR3 signaling,TLR3 [7],strongly inhibited TLR3 signaling in a dose dependent fashion
"28F11: anti-human TLR3 monoclonal antibody, IgG1; VH SEQ ID NO: 18, VL SEQ ID NO: 19 (antibody, listed as Mus musculus, V domains shown, SIGNAL (1)..(19); SIGNAL (1)..(20)) VH: MGWSWIFLFLLSGTAGVLSEVQLQQSGPELVKPGASVKISCKASGYSFTGYYIHWVKQSHVKSLEWIGRINPYYGATSYNQNFKDKANLTVDKSSSTAYMELHSLTSDDSAVYYCARSTKLGYLDYWGQGTTLTVS VL: MSVPTQVLGLLLLWLTGARCDIQMTQSPASLSASVGETVTITCRASENIYSNLAWYQQKQGKSPQLLIYNAKTLAEGVPSRFSGSGSGTQYFLKINSLQPEDFGSYYCQHHYGTPFTFGGGTKLEIK",antibody binding to TLR3 chip previously incubated with polyAU,TLR3 [6],able to bind TLR3 even in the presence of polyAU
same,inhibition of TLR3 signaling,TLR3 [7],strongly inhibited TLR3 signaling in a dose dependent fashion
"antibody 34A3 (antibody, V domains shown, Mouse hybridoma antibody (Balb/c, immunization series #2); also called 34A3.5; printed 34A4, 32A4 and 34A2 in some places) VH: EIQLQQSGPELVKPGASVKVSCKASGYVFTTYSIYWVKQSHGKSLEWIGYIDPYNGDTSYNQKFKGKATLTVDKSSSTAYMHLNSLTSEDSTVYYCAREGNYYGYFDYWGQGTTLTVS VL: QIVLTQSPALMSASPGEKVTMTCSASSSVSYMFWYQQKPRSSPKPWIYLTSNLASGVPARFSGSGSGTSYSLTISSMEAEDAATYYCQQWTGNPPTFGGGTKLEIK","IC50, luciferase reporter inhibition test with 100 µg/ml of polyAU",[2],< 5 µg/mL
same,Kd,[4],0.0517 nM
same,Kd,[5],0.00301 nM
